Measured values published in patent US20190106509A1 (PROTHIX B V, published 2019).
Residue numbers refer to the chain shown, from its start. Names may count otherwise.

B1: composite human mAb VH2/Vκ2 (antibody, V domains shown)
VH: QVQLVQSGSELKKPGASVKLSCKASGYTFTRYWMHWVKQAPGQGLEWIGNIYPDSDSTNYDEKFRTRATLTADTSTSTAYMELSSLRSEDTAVYYCTRMGFYAMDYWGQGTTVTVSS
VL: NIVMTQSPSSLSASVGDRVTITCKASENVVTYVSWFQQKPGQAPKLLIYGASNRYTGVPDRFSGSGSATDFTLTISSLQAEDVADYHCGQSYSYPLTFGQGTKLEIKR
notes: Human IgG4 (S241P hinge mutant) heavy chain and human kappa light chain
B2: composite human mAb VH2/Vκ4 (antibody, V domains shown)
VH: B1 VH
VL: B1 VL with N1D, A68G, D85T
notes: as for B1
B3: composite human mAb VH2/Vκ3 (antibody, V domains shown)
VH: B1 VH
VL: B1 VL with N1D, A68G
notes: as for B1
B4: composite human mAb VH2/Vκ1 (antibody, V domains shown)
VH: B1 VH
VL: B1 VL with S63T
notes: as for B1
B5: composite human mAb VH3/Vκ4 (antibody, V domains shown)
VH: B1 VH with K38R, A68V
VL: B1 VL with N1D, A68G, D85T
notes: as for B1
B6: composite human mAb VH1/Vκ1 (antibody, V domains shown)
VH: B1 VH with P41H, E82H, R87T, T91S, T112S
VL: B1 VL with S63T
notes: as for B1
B7: composite human mAb VH1/Vκ2 (antibody, V domains shown)
VH: B1 VH with P41H, E82H, R87T, T91S, T112S
VL: B1 VL
notes: as for B1
B8: composite human mAb VH3/Vκ1 (antibody, V domains shown)
VH: B1 VH with K38R, A68V
VL: B1 VL with S63T
notes: as for B1
B9: composite human mAb VH1/Vκ3 (antibody, V domains shown)
VH: B1 VH with P41H, E82H, R87T, T91S, T112S
VL: B1 VL with N1D, A68G
notes: as for B1
B10: composite human mAb VH3/Vκ2 (antibody, V domains shown)
VH: B1 VH with K38R, A68V
VL: B1 VL
notes: as for B1
B11: composite human mAb VH1/Vκ4 (antibody, V domains shown)
VH: B1 VH with P41H, E82H, R87T, T91S, T112S
VL: B1 VL with N1D, A68G, D85T
notes: as for B1
B12: composite human mAb VH3/Vκ3 (antibody, V domains shown)
VH: B1 VH with K38R, A68V
VL: B1 VL with N1D, A68G
notes: as for B1
B13: mouse mAb anti-FXI 34.2 (antibody, V domains shown)
VH: QVQLQQPGSELVRPGASVKLSCKASGYTFTRYWMHWVKQRHGQGLEWIGNIYPDSDSTNYDEKFRTKATLTADTSSSTAYMHLSSLTSEDSAVYYCTRMGFYAMDYWGQGTSVTVSS
VL: NIVMTQSPKSMSMSVGERVTLSCKASENVVTYVSWFQHKPEQSPKLLIYGASNRYTGVPDRFTGSGSATDFTLTISSVQAEDLADYHCGQSYSYPLTFGAGTKLELKR
notes: Mouse IgG purified from hybridoma supernatant by protein G

Each binder was assayed against T1, human coagulation factor XI (FXI) (human, UniProt P03951 19-625) (assay: cell-based or functional assay).

APTT (% NPP) | Binder
243 | B1
259 | B2
247 | B3
252 | B4
255 | B5
253 | B6
248 | B7
250 | B8
257 | B9
255 | B10
260 | B11
256 | B12

Each binder was assayed against T1, human coagulation factor XI (FXI) (assay: SPR (Biacore), FXI immobilized on CM5 chip, mAb as analyte).
Experimental: (§1) Surface plasmon resonance was on a Biacore 2000 (GE Healthcare) equipped with a research-grade cm5 sensor chip to assess the affinity constants of the mAbs for FXI. Factor XI was immobilized using amine-coupling chemistry. the surface was activated for 7 min with a 1:1 mixture of 0.1 M N-hydroxysuccinimide and 0.1 M 3-(N,N-dimethylamino) propyl-N-ethylcarbodiimide at a flow rate of 10 l per min. The ligand at a concentration of 10 μg/ml in 10 mM sodium acetate, pH 5.5, was immobilized at a density of 1000 ru. An untreated flow cell served as a reference surface. All the surfaces were blocked with a 7 min injection of 1 M ethanolamine, pH 8.0. The following protocol was used to assess kinetic binding of the mAbs to FXI. […] The complex was allowed to associate and dissociate for 360 and 600 seconds, respectively. The surfaces were regenerated with a 10 seconds injection of 50 mM NaOH. Triplicate injections (in random order) of each sample and a buffer blank were flowed over the two surfaces. Data were collected at a rate of 1 Hz. The data were fit to a simple 1:1 interaction model using the global data analysis option available within BiaEvaluation 4.1 software.

Kd [nM] | Binder
0.2 | B13

Molecular target: T1, human coagulation factor XI (FXI)
Experiment: as above
Remark: another data set of the same source
Experimental: as §1

Kd [nM] | Binder
0.88 | B1
0.062 | B2
0.51 | B3
0.24 | B4
0.42 | B5
0.12 | B6
0.25 | B7
0.13 | B8
0.17 | B9
0.079 | B10
0.35 | B11
0.081 | B12

Each binder was assayed against T1, human coagulation factor XI (FXI) (assay: competition ELISA on coated human FXI; competitor biotinylated murine mAb anti-FXI 34.2).
Text: The binding of the biotinylated antibody was detected with streptavidin-HRP (Sigma) and OPD substrate (Sigma. The reaction was stopped with 3M HCl, absorbance read at 490 nm on a Dynex Technologies MRX TC II plate reader and the binding curves plotted.

Relative IC50 | Binder
0.92 relative to IC50 of mouse-human chimeric mAb anti-FXI 34.2 | B1
0.98 relative to IC50 of mouse-human chimeric mAb anti-FXI 34.2 | B2
0.93 relative to IC50 of mouse-human chimeric mAb anti-FXI 34.2 | B3
0.84 relative to IC50 of mouse-human chimeric mAb anti-FXI 34.2 | B4
1.13 relative to IC50 of mouse-human chimeric mAb anti-FXI 34.2 | B5
0.75 relative to IC50 of mouse-human chimeric mAb anti-FXI 34.2 | B6
0.69 relative to IC50 of mouse-human chimeric mAb anti-FXI 34.2 | B7
0.87 relative to IC50 of mouse-human chimeric mAb anti-FXI 34.2 | B8
0.91 relative to IC50 of mouse-human chimeric mAb anti-FXI 34.2 | B9
0.87 relative to IC50 of mouse-human chimeric mAb anti-FXI 34.2 | B10
0.89 relative to IC50 of mouse-human chimeric mAb anti-FXI 34.2 | B11
0.99 relative to IC50 of mouse-human chimeric mAb anti-FXI 34.2 | B12
